Measurements published in patent US20210063414A1, “METHODS FOR PREVENTING AND/OR TREATING BONE LOSS CONDITIONS BY MODULATING IRISIN” (Dana-Farber Cancer Institute, Inc., priority 2018, published 2021).

Assays:
[1] = molecular target: T1, MLO-Y4 cell surface proteins (Mus musculus, UniProt P04117); assay: Crosslinking/co-immunoprecipitation/mass spectrometry (TMT quantitative proteomics) to identify irisin receptors; format: binding; conditions: co-precipitated protein Fabp4 (FABP4_MOUSE)
T1 construct: endogenous in cells; host or cells: MLO-Y4
T1 sequence (P04117 1-132): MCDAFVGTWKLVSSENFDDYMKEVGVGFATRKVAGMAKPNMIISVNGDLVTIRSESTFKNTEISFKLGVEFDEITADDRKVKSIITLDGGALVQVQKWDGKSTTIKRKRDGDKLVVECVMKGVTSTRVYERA
Outline: (§1)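 Mouse MLO-Y4 cells were switched to serum-free FreeStyle medium for 4 h, chilled, then exposed to 10 nM His-tagged irisin (or adipsin as control) for 20 min. Cells were crosslinked with 1.5 mM DTSSP (30 min, ice), and bound proteins were pulled down on Ni-NTA and eluted with 250 mM imidazole. Eluates were separated by SDS-PAGE, trypsin-digested in gel, TMT 6-plex labelled and quantified by MS3-based LC-MS/MS on an Orbitrap Fusion Lumos.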

[2] = molecular target: T2, MLO-Y4 cell surface proteins (Mus musculus, UniProt Q8BJQ9); assay: as above; format: binding; conditions: co-precipitated protein Csgalnact1 (CGAT1_MOUSE)
T2 construct: endogenous in cells; host or cells: MLO-Y4
T2 sequence (Q8BJQ9 1-530): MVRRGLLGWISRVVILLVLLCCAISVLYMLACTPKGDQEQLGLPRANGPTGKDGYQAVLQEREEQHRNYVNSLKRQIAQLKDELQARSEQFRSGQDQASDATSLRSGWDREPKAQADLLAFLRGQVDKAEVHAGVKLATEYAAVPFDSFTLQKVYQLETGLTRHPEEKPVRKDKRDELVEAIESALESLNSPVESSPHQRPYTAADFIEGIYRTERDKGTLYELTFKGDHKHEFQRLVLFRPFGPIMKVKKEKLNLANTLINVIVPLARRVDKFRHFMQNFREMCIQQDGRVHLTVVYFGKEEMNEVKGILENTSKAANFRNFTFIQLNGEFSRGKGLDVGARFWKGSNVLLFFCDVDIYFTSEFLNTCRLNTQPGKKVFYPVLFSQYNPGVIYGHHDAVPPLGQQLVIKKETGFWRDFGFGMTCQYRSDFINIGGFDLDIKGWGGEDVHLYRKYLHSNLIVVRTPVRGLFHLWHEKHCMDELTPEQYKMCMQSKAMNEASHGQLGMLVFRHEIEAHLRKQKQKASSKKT
Outline: as §1

B1: irisin: secreted cleaved form of FNDC5; recombinant human/mouse irisin with C-terminal his tag produced in HEK293 cells (protein)
chain: DSPSAPVNVTVRHLKANSAVVSWDVLEDEVVIGFAISQQKKDVRMLRFIQEVNTTTRSCALWDLEEDTEYIVHVQAISIQGQSPASEPVLFKTPREAEKMASKNKDEVTMKE
modifications: left off: small tags and cut ends
notes: secreted cleaved form of FNDC5; recombinant human/mouse irisin with C-terminal his tag produced in HEK293 cells
- TMT signal-to-noise ratio [1]: 40.1352
- irisin/adipsin TMT signal-to-noise ratio [1]: 0.054
- TMT signal-to-noise ratio [2]: 1300.88
- irisin/adipsin TMT signal-to-noise ratio [2]: 0.536
